Test results published in patent US20200347147A1 (Hoffmann-La Roche, published 2020).

How the values were obtained:
[1] = molecular target: T1, human Carcinoembryonic antigen (CEA), also known as Carcinoembryonic antigen-related cell adhesion molecule 5 (human, UniProt P06731 35-685); assay: flow cytometry on MKN45 cells (~513 300 CEA binding sites)
T1 construct: whole, on cells; Expressed on the tumor cell lines MKN45, LS174T, HT29 and others, and on transiently transfected HEK293T cells; also called human CEA; CEACAM5
T1 sequence (looked up): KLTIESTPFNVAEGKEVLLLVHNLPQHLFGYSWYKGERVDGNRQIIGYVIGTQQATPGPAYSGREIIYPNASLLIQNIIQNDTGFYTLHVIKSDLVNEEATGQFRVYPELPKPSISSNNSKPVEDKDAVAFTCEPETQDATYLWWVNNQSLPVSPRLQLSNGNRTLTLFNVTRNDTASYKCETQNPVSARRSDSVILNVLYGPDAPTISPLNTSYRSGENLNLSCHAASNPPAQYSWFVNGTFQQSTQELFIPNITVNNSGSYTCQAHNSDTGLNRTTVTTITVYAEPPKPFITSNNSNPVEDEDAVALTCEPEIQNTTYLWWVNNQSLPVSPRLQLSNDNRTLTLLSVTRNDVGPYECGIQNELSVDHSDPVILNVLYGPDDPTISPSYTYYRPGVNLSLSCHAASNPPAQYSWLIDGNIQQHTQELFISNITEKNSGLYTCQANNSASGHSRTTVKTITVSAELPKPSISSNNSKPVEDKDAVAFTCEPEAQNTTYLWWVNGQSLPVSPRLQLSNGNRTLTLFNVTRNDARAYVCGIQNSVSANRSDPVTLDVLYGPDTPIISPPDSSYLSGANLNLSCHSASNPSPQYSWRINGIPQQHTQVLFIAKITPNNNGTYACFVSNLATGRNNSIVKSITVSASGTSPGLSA
Method: (§1) The binding of the TCB molecules used in Example 5A and B was tested on different CEA-expressing tumor and CD3-expressing Jurkat (DSMZ ACC 282) cells.
(§2) Briefly, cells were harvested, counted, checked for viability and re-suspended at 2×10⁶ cells/ml in FACS buffer (100 μl PBS 0.1% BSA). 100 μl of cell suspension (containing 0.2×10⁶ cells) were incubated in round-bottom 96-well plate for 30 min at 4° C. with increasing concentrations of the CEA IgG (31 pM-500 nM), washed twice with cold PBS 0.1% BSA, re-incubated for further 30 min at 4° C. with the FITC-conjugated AffiniPure F(ab′)2 Fragment goat anti-human IgG Fcg Fragment Specific secondary antibody (Jackson Immuno Research Lab FITC #109-096-008, 1:40 pre-diluted in PBS 0.1% BSA), washed twice with cold PBS 0.1% BSA and fixed using 150 μl PBS 0.1% BSA, containing 2% PFA and incubation at 4° C. for 20 min. Thereafter, cells were washed once for 8 min at 400×g, 4° C. and finally re-suspended in 150 μl FACS buffer for the FACS measurement. Fluorescence was measured using Miltenyi MACSQuant.

[2] = molecular target: T1, human Carcinoembryonic antigen (CEA), …; assay: cell-based or functional assay
[3] = molecular target: T1, human Carcinoembryonic antigen (CEA), …; assay: flow cytometry on LS-174T cells (~40 700 CEA binding sites)
Method: as §1, §2

[4] = molecular target: T1, human Carcinoembryonic antigen (CEA), …; assay: flow cytometry on CEA-expressing MKN45 cells, PE anti-human Fc secondary
Method: Briefly, cells were harvested, counted, checked for viability and re-suspended at 2×10⁶ cells/ml in FACS buffer (100 μl PBS 0.1% BSA). […] Binding curves and EC50 values were obtained and calculated using GraphPadPrism5 (FIG. 2, binding to MKN45 cells).

human CEACAM1 = molecular target: T2, human CEACAM1 (human, UniProt P13688 35-526); assay: flow cytometry on transient HEK293T transfectants
T2 construct: whole, on cells
T2 sequence (looked up): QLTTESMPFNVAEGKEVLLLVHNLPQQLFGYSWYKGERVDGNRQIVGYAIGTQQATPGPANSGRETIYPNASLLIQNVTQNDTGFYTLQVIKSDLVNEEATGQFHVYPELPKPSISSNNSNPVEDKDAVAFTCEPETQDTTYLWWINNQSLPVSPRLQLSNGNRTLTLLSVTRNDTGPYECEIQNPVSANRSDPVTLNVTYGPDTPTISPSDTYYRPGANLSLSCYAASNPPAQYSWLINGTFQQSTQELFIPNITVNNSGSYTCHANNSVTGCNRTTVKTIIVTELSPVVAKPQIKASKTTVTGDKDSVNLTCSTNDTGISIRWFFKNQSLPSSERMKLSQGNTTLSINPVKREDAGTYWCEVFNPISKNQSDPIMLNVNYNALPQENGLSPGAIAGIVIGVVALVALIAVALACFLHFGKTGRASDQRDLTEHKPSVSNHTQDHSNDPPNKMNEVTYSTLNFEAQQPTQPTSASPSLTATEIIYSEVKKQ
Method: (§3) Briefly, cells were harvested, counted, checked for viability and re-suspended at 1×10⁶ cells/ml in FACS buffer (100 μl PBS 0.1% BSA). 100 μl of the cell suspension (containing 0.1×10⁶ cells) were plated iton round-bottom 96-well plates and washed twice with 150 μl of cold PBS. Cells were stained for 30 min at 4° C., using a 1:5000 pre-diluted suspension of the fixable viability dye eFluor660 (eBioscience, #65-0864-14) in PBS. […] Cells were washed twice with cold PBS 0.1% BSA, re-incubated for further 30 min at 4° C. with the FITC-conjugated AffiniPure F(ab′)2 Fragment goat anti-human IgG Fcg Fragment Specific secondary antibody (Jackson Immuno Research Lab FITC #109-096-098, 1:50 pre-diluted in PBS 0.1% BSA), washed twice with cold PBS 0.1% BSA and fixed using 150 μl PBS 0.1% BSA, containing 2% PFA and incubation at 4° C. for 20 min. Thereafter, cells were washed once for 8 min at 400×g, 4° C. and finally re-suspended in 150 μl FACS buffer for the FACS measurement. Fluorescence was measured using BD FACS CantoII. Binding curves were obtained using GraphPadPrism6 (FIG. 20A).

human CEACAM6 = molecular target: T3, human CEACAM6 (human, UniProt P40199 35-320); assay: flow cytometry on transient HEK293T transfectants
T3 construct: whole, on cells
T3 sequence (looked up): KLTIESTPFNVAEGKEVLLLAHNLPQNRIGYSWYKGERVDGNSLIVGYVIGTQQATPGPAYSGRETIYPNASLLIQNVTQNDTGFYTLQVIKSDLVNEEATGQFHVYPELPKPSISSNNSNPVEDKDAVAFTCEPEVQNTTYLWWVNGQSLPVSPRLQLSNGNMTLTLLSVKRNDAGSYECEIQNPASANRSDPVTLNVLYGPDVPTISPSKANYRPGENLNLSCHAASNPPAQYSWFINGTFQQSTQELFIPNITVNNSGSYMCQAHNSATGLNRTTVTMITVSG
Method: as §3

B1: CEA CD3 TCB molecule X (TCB of similar structure as molecule B, based on a different humanized CEA binder not based on T84.66) (bispecific antibody)
chain 1: not shown
chain 2: QVQLVQSGAEVKKPGASVKVSCKASGYTFTEFGMNWVRQAPGQGLEWMGWINTKTGEATYVEEFKGRVTFTTDTSTSTAYMELRSLRSDDTAVYYCARWDFAYYVEAMDYWGQGTTVTVSSASTKGPSVFPLAPSSKSTSGGTAALGCLVKDYFPEPVTVSWNSGALTSGVHTFPAVLQSSGLYSLSSVVTVPSSSLGTQTYICNVNHKPSNTKVDKKVEPKSCDKTHTCPPCPAPEAAGGPSVFLFPPKPKDTLMISRTPEVTCVVVDVSHEDPEVKFNWYVDGVEVHNAKTKPREEQYNSTYRVVSVLTVLHQDWLNGKEYKCKVSNKALGAPIEKTISKAKGQPREPQVCTLPPSRDELTKNQVSLSCAVKGFYPSDIAVEWESNGQPENNYKTTPPVLDSDGSFFLVSKLTVDKSRWQQGNVFSCSVMHEALHNHYTQKSLSLSPGK
chain 3: QAVVTQEPSLTVSPGGTVTLTCGSSTGAVTTSNYANWVQEKPGQAFRGLIGGTNKRAPGTPARFSGSLLGGKAALTLSGAQPEDEAEYYCALWYSNLWVFGGGTKLTVLSSASTKGPSVFPLAPSSKSTSGGTAALGCLVKDYFPEPVTVSWNSGALTSGVHTFPAVLQSSGLYSLSSVVTVPSSSLGTQTYICNVNHKPSNTKVDKKVEPKSC
chain 4: DIQMTQSPSSLSASVGDRVTITCKASAAVGTYVAWYQQKPGKAPKLLIYSASYRKRGVPSRFSGSGSGTDFTLTISSLQPEDFATYYCHQYYTYPLFTFGQGTKLEIKRTVAAPSVFIFPPSDEQLKSGTASVVCLLNNFYPREAKVQWKVDNALQSGNSQESVTEQDSKDSTYSLSSTLTLSKADYEKHKVYACEVTHQGLSSPVTKSFNRGEC
Question: Which EC50 [1] does the source give for B1 here?
Answer: 27.9 nM

Question: What about the “EC50 of T-cell mediated lysis of Kato III cells (LDH release, human PBMC, E:T 10:1), 48 h” value [2] of the same binder?
Answer: 8.23 nM

Question: And the EC50 [3]?
Answer: 11.7 nM

B2: Humanized variant 1 of T84.66 IgG (antibody, V domains shown)
VH: QVQLVQSGAEVKKPGSSVKVSCKASGFNIKDTYMHWVRQAPGQGLEWMGRIDPANGNSKYVPKFQGRVTITADTSTSTAYMELSSLRSEDTAVYYCAPFGYYVSDYAMAYWGQGTLVTVSS
VL: EIVLTQSPATLSLSPGERATLSCRAGESVDIFGVGFLHWYQQKPGQAPRLLIYRASNRATGIPARFSGSGSGTDFTLTISSLEPEDFAVYYCQQTNEDPYTFGQGTKLEIK
notes: Tested as IgG and detected with an anti-human IgG Fc secondary antibody
Question: With B2 as the binder, how does the EC50 [4] read?
Answer: 1.5 µg/mL

B3: CEA CD3 TCB molecule B, "2+1 IgG CrossFab, inverted" with charge modifications, humanized CEA binder (humanized variant 1) (bispecific antibody)
heavy 1: not shown
heavy 2: QVQLVQSGAEVKKPGSSVKVSCKASGFNIKDTYMHWVRQAPGQGLEWMGRIDPANGNSKYVPKFQGRVTITADTSTSTAYMELSSLRSEDTAVYYCAPFGYYVSDYAMAYWGQGTLVTVSSASTKGPSVFPLAPSSKSTSGGTAALGCLVEDYFPEPVTVSWNSGALTSGVHTFPAVLQSSGLYSLSSVVTVPSSSLGTQTYICNVNHKPSNTKVDEKVEPKSCDKTHTCPPCPAPEAAGGPSVFLFPPKPKDTLMISRTPEVTCVVVDVSHEDPEVKFNWYVDGVEVHNAKTKPREEQYNSTYRVVSVLTVLHQDWLNGKEYKCKVSNKALGAPIEKTISKAKGQPREPQVCTLPPSRDELTKNQVSLSCAVKGFYPSDIAVEWESNGQPENNYKTTPPVLDSDGSFFLVSKLTVDKSRWQQGNVFSCSVMHEALHNHYTQKSLSLSP
light 1: EIVLTQSPATLSLSPGERATLSCRAGESVDIFGVGFLHWYQQKPGQAPRLLIYRASNRATGIPARFSGSGSGTDFTLTISSLEPEDFAVYYCQQTNEDPYTFGQGTKLEIKRTVAAPSVFIFPPSDRKLKSGTASVVCLLNNFYPREAKVQWKVDNALQSGNSQESVTEQDSKDSTYSLSSTLTLSKADYEKHKVYACEVTHQGLSSPVTKSFNRGEC
light 2: EVQLLESGGGLVQPGGSLRLSCAASGFTFSTYAMNWVRQAPGKGLEWVSRIRSKYNNYATYYADSVKGRFTISRDDSKNTLYLQMNSLRAEDTAVYYCVRHGNFGNSYVSWFAYWGQGTLVTVSSASVAAPSVFIFPPSDEQLKSGTASVVCLLNNFYPREAKVQWKVDNALQSGNSQESVTEQDSKDSTYSLSSTLTLSKADYEKHKVYACEVTHQGLSSPVTKSFNRGEC
notes: The two copies of the CEA light chain follow from the 2+1 format and the 1:2:1:1 vector ratio; also called CEA CD3 TCB based on humanized variant 1
Question: What does the source list for B3?
Answer: binding result (human CEACAM1): no binding (tested: 30.5 pM-500 nM); binding result (human CEACAM6): no binding (tested: 30.5 pM-500 nM)
